Measurements reported in patent US20240294590A1.

What was measured:
[1] = target: Histidine tagged PSMGFR peptide (MUC1* extra cellular domain peptide); assay: SPR, Biacore 3000, His-tagged PSMGFR peptide on NTA-Ni SAM chip
[2] = target: Histidine tagged PSMGFR peptide (MUC1* extra cellular domain peptide); assay: SPR, Biacore 3000, His-tagged PSMGFR peptide on NTA-Ni SAM chip; hexamer signal divided by 3

Histidine tagged PSMGFR peptide (MUC1* extra cellular domain peptide), sequence (peptide, as listed by the source): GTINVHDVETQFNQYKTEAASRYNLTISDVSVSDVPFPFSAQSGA

NM23-S120G-hexamer (non-refolded soluble-fraction preparation of NM23-H1 S120G) (from UniProt P15531 1-152) (ligand)
amount of binding (RUs) [1]: 100 RU | fold less bound than NM23-S120G-dimer [2]: 12 fold
